According to the supplement of paper PMC10567573:

B1: SEC22B (parent)
chain: FPKKLAFAYLEDLHSEFDEQHGKK

Variants of: B1
Test: protein stability index of a GFP-peptide fusion (GPS, HEK-293T) (PSI 1-6); higher = more stable
Settings: c terminus: a fixed tail appended
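Also: lentivirally expressed fusions sorted by FACS into six bins by GFP to DsRed ratio, PSI derived from sequencing read proportions per bin multiplied by bin number.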

Variant	protein stability index
S15T	2.41
S15I	2.25
S15E	2.9
S15L	2.85
S15P	2.42
S15M	2.5
S15W	2.27
S15D	2.89
S15G	2.25
S15Y	2.08
S15V	2.88
S15F	2.15
S15A	2.15
S15H	2.22
S15C	2.25
S15Q	2.73
S15N	2.67
S15K	2.54
S15R	2.41
H21M	2.69
H21P	2.41
H21Y	2.37
H21V	2.28
H21E	2.85

Variant	protein stability index
H21K	2.55
H21A	2.93
H21S	2.6
H21G	2.5
H21T	2.69
H21D	3.02
H21C	2.28
H21I	1.98
H21F	2.46
H21N	3.07
H21L	2.25
H21W	2.34
H21R	2.37
H21Q	2.66
D18I	1.92
D18K	1.76
D18L	2.22
D18H	2.38
D18W	2.17
D18R	2.03
D18V	2.45
D18N	2.3
D18F	2.04
D18S	2.92

Variant	protein stability index
D18Y	1.5
D18A	2.38
D18E	2.65
D18G	2.38
D18C	1.9
D18T	2.56
D18M	2.22
D18Q	2.25
D18P	2.47
E19M	2.53
E19D	2.92
E19A	2.47
E19N	2.86
E19H	2.05
E19V	2.32
E19L	2.6
E19I	2.37
E19G	2.36
E19Y	2.39
E19W	2.12
E19K	2.37
E19Q	2.33
E19C	2.15
E19R	1.63

Variant	protein stability index
E19P	2.79
E19S	2.33
E19F	2.51
E19T	2.42
H14T	2.89
H14E	2.13
H14D	2.53
H14K	2.96
H14F	1.91
H14L	2.31
H14V	1.98
H14G	2.57
H14A	2.47
H14Y	2.28
H14Q	2.85
H14P	2.2
H14S	2.75
H14R	2.55
H14N	2.46
H14I	1.68
H14W	2.06
H14C	2.07
H14M	2.23
F17A	2.68

Variant	protein stability index
F17M	2.45
F17H	2.66
F17S	2.64
F17K	2.98
F17W	2.57
F17G	2.4
F17L	2.54
F17T	2.99
F17E	3.04
F17D	3.03
F17N	2.76
F17C	2.87
F17Q	3.28
F17P	2.75
F17Y	2.91
F17V	2.67
F17I	2.6
F17R	2.85
G22C	2.35
G22I	2.25
G22P	2.48
G22N	2.71
G22E	2.56
G22K	2.23

Variant	protein stability index
G22A	2.54
G22L	2.34
G22H	3
G22M	2.62
G22D	2.15
G22F	1.97
E16P	2.25
E16T	2.36
E16N	2.15
E16Q	2.55
E16L	2.29
E16D	2.34
E16I	2.07
E16R	2.39
E16Y	1.56
E16H	2.08
E16V	1.87
E16A	2.4
E16S	2.8
E16M	1.93
E16C	2
E16G	2.5
E16F	1.53
E16W	1.94

Variant	protein stability index
E16K	2.87
Q20A	2.23
Q20N	2.55
Q20V	2.84
Q20F	2.49
Q20M	2.03
Q20K	2.64
Q20H	2.47
Q20P	2.4
Q20R	2.67
Q20G	2.32
Q20E	2.52
Q20T	2.44
Q20W	2.46
Q20I	2.03
Q20C	2.09
Q20S	2.58
Q20Y	2.47
Q20D	2.93
Q20L	2.54
L13V	2.55
L13W	2.99
L13Y	2.47
